Data: patent US20210017240A1 (ACCESS BUSINESS GROUP INTERNATIONAL, published 2021)

Target: angiotensin converting enzyme (ACE)
Experiment: cell-based or functional assay

Binder	IC50 of in vitro ACE activity inhibition (FAPGG substrate, absorbance at 345 nM) [µg/mL]
TGSYTEGWS [isolated peptide 4, TGSYTEGWS (Thr-Gly-Ser-Tyr-Thr-Glu-Gly-Trp-Ser)]	550
MVWGP [isolated peptide 3, MVWGP (Met-Val-Trp-Gly-Pro)]	21
YFVP [isolated peptide 1, YFVP (Tyr-Phe-Val-Pro)]	250
SGRDP [isolated peptide 2, SGRDP (Ser-Gly-Arg-Asp-Pro)]	510

Target: T1, human recombinant renin (human, UniProt P00797 67-406, limits assumed)
T1 sequence (looked up): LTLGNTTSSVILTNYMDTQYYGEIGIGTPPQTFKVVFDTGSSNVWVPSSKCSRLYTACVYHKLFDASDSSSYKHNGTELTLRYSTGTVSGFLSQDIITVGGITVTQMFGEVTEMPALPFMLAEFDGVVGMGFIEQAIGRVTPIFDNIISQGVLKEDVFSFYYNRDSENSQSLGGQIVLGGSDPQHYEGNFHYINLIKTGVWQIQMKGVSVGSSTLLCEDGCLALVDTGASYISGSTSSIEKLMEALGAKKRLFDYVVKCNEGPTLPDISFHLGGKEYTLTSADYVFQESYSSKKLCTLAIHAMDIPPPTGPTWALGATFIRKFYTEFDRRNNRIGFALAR
Experiment: cell-based or functional assay

Binder	% Inhibition of renin activity at 1 mg/mL peptide (fluorometric Renin Inhibitor Screening Assay Kit) [%]
TGSYTEGWS [isolated peptide 4, TGSYTEGWS (Thr-Gly-Ser-Tyr-Thr-Glu-Gly-Trp-Ser)]	107
MVWGP [isolated peptide 3, MVWGP (Met-Val-Trp-Gly-Pro)]	-46.4
YFVP [isolated peptide 1, YFVP (Tyr-Phe-Val-Pro)]	-40.5
SGRDP [isolated peptide 2, SGRDP (Ser-Gly-Arg-Asp-Pro)]	-54.5
